# Source: patent publication US20250248992A1, “INNATE IMMUNE-ACTIVATING DRUG AND USE THEREOF” (LUODA BIOPHARMA (SUZHOU) CO., LTD., priority 2021, published 2025)
# B1: ovalbumin (protein, UniProt P01012 2-386, looked up)
# Ovalbumin: GSIGAASMEFCFDVFKELKVHHANENIFYCPIAIMSALAMVYLGAKDSTRTQINKVVRFDKLPGFGDSIEAQCGTSVNVHSSLRDILNQITKPNDVYSFSLASRLYAEERYPILPEYLQCVKELYRGGLEPINFQTAADQARELINSWVESQTNGIIRNVLQPSSVDSQTAMVLVNAIVFKGLWEKAFKDEDTQAMPFRVTEQESKPVQMMYQIGLFRVASMASEKMKILELPFASGTMSMLVLLPDEVSGLEQLESIINFEKLTEWTSSNVMEERKIKVYLPRMKMEEKYNLTSVLMAMGITDVFSSSANLSGISSAESLKISQAVHAAHAEINEAGREVVGSAEAGVDAASVSEEFRADHPFLFCIKHIATNAVLFFGRCVSP
# notes: Antigen ovalbumin (OVA) used for immunization of mice
# Tested on: OVA-specific antibodies in serum
# Assay: Immune adjuvant activity with ovalbumin (OVA), serum antibody ELISA
# Assay type: in vivo, mice
# Conditions: OVA alone, intramuscular, Day 0, 7, 14, serum Day 21
molecule,measurement,value
B1,protective humoral immune response after immunization,did not generate a protective humoral immune response
